Measured values as given in IntAct's records for PubMed 31515488.

B1: Embryonal Fyn-associated substrate (Homo sapiens), O43281 (parent)
chain: MAIATSTQLARALYDNTAESPQELSFRRGDVLRVLQREGAGGLDGWCLCSLHGQQGIVPANRVKLLPAGPAPKPSLSPASPAQPGSPYPAPDHSNEDQEVYVVPPPARPCPTSGPPAGPCPPSPDLIYKIPRASGTQLAAPRDALEVYDVPPTALRVPSSGPYDCPASFSHPLTRVAPQPPGEDDAPYDVPLTPKPPAELEPDLEWEGGREPGPPIYAAPSNLKRASALLNLYEAPEELLADGEGGGTDEGIYDVPLLGPEAPPSPEPPGALASHDQDTLAQLLARSPPPPHRPRLPSAESLSRRPLPALPVPEAPSPSPVPSPAPGRKGSIQDRPLPPPPPRLPGYGGPKVEGDPEGREMEDDPAGHHNEYEGIPMAEEYDYVHLKGMDKAQGSRPPDQACTGDPELPERGMPAPQEALSPGEPLVVSTGDLQLLYFYAGQCQSHYSALQAAVAALMSSTQANQPPRLFVPHSKRVVVAAHRLVFVGDTLGRLAASAPLRAQVRAAGTALGQALRATVLAVKGAALGYPSSPAIQEMVQCVTELAGQALQFTTLLTSLAP
partner: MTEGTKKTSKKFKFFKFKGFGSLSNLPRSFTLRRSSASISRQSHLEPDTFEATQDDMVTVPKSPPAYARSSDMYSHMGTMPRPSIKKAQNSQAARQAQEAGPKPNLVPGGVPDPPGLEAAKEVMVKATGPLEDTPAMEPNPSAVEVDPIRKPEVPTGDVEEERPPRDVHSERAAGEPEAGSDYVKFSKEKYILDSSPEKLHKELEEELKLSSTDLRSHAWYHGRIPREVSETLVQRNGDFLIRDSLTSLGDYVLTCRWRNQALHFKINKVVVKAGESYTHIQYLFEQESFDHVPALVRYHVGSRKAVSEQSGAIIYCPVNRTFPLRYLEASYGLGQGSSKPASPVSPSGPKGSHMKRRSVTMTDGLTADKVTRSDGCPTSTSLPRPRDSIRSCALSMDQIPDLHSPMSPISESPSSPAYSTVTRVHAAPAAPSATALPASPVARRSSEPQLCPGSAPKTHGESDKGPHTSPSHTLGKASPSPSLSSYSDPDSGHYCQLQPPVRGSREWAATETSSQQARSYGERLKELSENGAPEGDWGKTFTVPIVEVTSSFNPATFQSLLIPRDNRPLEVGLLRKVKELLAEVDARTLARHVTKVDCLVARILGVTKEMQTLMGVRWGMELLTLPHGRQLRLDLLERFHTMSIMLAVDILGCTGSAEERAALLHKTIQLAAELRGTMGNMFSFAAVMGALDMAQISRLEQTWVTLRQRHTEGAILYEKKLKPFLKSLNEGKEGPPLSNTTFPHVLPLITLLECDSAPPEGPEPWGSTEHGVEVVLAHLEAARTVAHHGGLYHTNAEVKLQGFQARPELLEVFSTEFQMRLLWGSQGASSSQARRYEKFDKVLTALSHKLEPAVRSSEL
B2: Protein NOXP20 (Homo sapiens), Q8IWE2 (parent)
chain: MSDDAGDTLATGDKAEVTEMPNSDSLPEDAEVHCDSAAVSHEPTPADPRGEGHENAAVQGAGAAAIGPPVQPQDANALEPPLNGDVTEDTLAECIDSVSLEAEPRSEIPLQEQNYLAVDSPPSGGGWAGWGSWGKSLLSSASATVGHGLTAVKEKAGATLRIHGVNSGSSEGAQPNTENGVPEITDAATDQGPAESPPTSPSSASRGMLSAITNVVQNTGKSVLTGGLDALEFIGKKTMNVLAESDPGFKRTKTLMERTVSLSQMLREAKEKEKQRLAQQLTMERTAHYGMLFDEYQGLSHLEALEILSNESESKVQSFLASLDGEKLELLKNDLISIKDIFAAKELENEENQEEQGLEEKGEEFARMLTELLFELHVAATPDKLNKAMKRAHDWVEEDQTVVSVDVAKVSEEETKKEEKEEKSQDPQEDKKEEKKTKTIEEVYMSSIESLAEVTARCIEQLHKVAELILHGQEEEKPAQDQAKVLIKLTTAMCNEVASLSKKFTNSLTTVGSNKKAEVLNPMISSVLLEGCNSTTYIQDAFQLLLPVLQVSHIQTSCLKAQP
B3: Actin-associated protein FAM107A (Homo sapiens), O95990 (parent)
chain: MYSEIQRERADIGGLMARPEYREWNPELIKPKKLLNPVKASRSHQELHRELLMNHRRGLGVDSKPELQRVLEHRRRNQLIKKKKEELEAKRLQCPFEQELLRRQQRLNQLEKPPEKEEDHAPEFIKVRENLRRIATLTSEEREL
partner: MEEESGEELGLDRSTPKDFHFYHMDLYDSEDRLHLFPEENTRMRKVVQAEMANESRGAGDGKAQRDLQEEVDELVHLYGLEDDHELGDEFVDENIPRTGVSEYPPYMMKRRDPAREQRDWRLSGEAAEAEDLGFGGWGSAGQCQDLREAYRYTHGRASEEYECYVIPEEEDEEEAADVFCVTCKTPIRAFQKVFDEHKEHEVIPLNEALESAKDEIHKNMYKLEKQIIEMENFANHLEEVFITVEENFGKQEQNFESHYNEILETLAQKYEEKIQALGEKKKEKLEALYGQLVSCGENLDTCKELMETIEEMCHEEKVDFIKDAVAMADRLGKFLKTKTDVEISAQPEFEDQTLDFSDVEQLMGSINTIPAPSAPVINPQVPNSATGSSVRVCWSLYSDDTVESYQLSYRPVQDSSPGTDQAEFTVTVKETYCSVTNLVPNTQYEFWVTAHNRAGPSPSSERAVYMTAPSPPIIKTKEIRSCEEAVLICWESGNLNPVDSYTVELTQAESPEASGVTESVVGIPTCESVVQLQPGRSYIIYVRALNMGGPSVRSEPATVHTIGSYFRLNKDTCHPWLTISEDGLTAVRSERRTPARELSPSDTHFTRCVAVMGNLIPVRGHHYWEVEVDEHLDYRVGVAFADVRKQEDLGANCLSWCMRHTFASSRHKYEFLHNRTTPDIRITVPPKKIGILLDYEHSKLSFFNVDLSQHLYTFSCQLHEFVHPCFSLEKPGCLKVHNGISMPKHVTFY
B4: Methylmalonyl-CoA epimerase, mitochondrial (Homo sapiens), Q96PE7 (parent)
chain: MARVLKAAAANAVGLFSRLQAPIPTVRASSTSQPLDQVTGSVWNLGRLNHVAIAVPDLEKAAAFYKNILGAQVSEAVPLPEHGVSVVFVNLGNTKMELLHPLGRDSPIAGFLQKNKAGGMHHICIEVDNINAAVMDLKKKKIRSLSEEVKIGAHGKPVIFLHPKDCGGVLVELEQA
partner: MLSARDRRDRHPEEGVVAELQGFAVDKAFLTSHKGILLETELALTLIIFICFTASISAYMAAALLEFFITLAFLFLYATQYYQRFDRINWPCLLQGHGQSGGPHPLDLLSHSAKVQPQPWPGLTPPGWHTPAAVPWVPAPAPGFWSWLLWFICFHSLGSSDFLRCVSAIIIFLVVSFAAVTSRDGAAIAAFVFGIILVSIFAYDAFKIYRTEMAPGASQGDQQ
B5: Zinc finger protein 414 (Homo sapiens), Q96IQ9 (parent)
chain: MEEKPSGPIPDMLATAEPSSSETDKEVLSPAVPAAAPSSSMSEEPGPEQAATPPVWERGGAGGMQQGSSPAPDSCQPGPGPSPGLTSIVSGTSEDLRPPRRRPPPGKQIPCSSPGCCLSFPSVRDLAQHLRTHCPPTQSLEGKLFRCSALSCTETFPSMQELVAHSKLHYKPNRYFKCENCLLRFRTHRSLFKHLHVCAEHAQSPAPPPPPALDREPPAPERPPEVDPASAPGLPFPLLEPFTTPAPAPTGPFLPYLNPAPFGLSPPRLRPFLAAAPGPPASSAAVWKKSQGAGSSPRRPQGGSDAPSGACR
partner: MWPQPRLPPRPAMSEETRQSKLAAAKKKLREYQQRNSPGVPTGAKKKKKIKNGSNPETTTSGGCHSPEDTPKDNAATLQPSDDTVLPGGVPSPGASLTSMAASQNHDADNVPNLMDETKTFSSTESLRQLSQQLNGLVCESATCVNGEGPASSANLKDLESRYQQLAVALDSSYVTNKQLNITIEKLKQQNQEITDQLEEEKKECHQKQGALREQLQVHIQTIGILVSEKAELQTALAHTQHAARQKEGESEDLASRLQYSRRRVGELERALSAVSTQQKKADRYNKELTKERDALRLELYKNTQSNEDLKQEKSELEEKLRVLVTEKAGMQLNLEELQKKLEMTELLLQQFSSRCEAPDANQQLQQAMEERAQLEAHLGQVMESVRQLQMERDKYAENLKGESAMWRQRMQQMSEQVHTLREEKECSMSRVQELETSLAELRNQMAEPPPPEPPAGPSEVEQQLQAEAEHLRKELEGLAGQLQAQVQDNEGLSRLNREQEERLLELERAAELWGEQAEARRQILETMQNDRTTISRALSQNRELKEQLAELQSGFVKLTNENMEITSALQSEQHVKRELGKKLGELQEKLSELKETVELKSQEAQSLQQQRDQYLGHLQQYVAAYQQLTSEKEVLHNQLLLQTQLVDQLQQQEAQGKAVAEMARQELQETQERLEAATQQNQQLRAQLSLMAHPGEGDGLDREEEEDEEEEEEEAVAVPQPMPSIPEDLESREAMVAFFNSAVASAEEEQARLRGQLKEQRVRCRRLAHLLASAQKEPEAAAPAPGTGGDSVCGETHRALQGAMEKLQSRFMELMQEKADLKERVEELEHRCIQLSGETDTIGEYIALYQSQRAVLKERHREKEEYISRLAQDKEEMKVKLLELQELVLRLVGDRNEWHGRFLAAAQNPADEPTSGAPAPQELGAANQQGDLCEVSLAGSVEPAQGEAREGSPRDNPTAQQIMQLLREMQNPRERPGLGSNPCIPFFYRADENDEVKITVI
B6: Docking protein 3 (Homo sapiens), Q7L591 (parent)
chain: MTRGARLRSDARAQLNQLSLDGGTGSGQKGKCEEFPSSLSSVSPGLEAAALLLAVTMDPLETPIKDGILYQQHVKFGKKCWRKVWALLYAGGPSGVARLESWEVRDGGLGAAGDRSAGPGRRGERRVIRLADCVSVLPADGESCPRDTGAFLLTTTERSHLLAAQHRQAWMGPICQLAFPGTGEASSGSTDAQSPKRGLVPMEENSIYSSWQEVGEFPVVVQRTEAATRCQLKGPALLVLGPDAIQLREAKGTQALYSWPYHFLRKFGSDKGVFSFEAGRRCHSGEGLFAFSTPCAPDLCRAVAGAIARQRERLPELTRPQPCPLPRATSLPSLDTPGELREMPPGPEPPTSRKMHLAEPGPQSLPLLLGPEPNDLASGLYASVCKRASGPPGNEHLYENLCVLEASPTLHGGEPEPHEGPGSRSPTTSPIYHNGQDLSWPGPANDSTLEAQYRRLLELDQVEGTGRPDPQAGFKAKLVTLLSRERRKGPAPCDRP
B7: Zinc finger protein Aiolos (Homo sapiens), Q9UKT9-1 (parent)
chain: MEDIQTNAELKSTQEQSVPAESAAVLNDYSLTKSHEMENVDSGEGPANEDEDIGDDSMKVKDEYSERDENVLKSEPMGNAEEPEIPYSYSREYNEYENIKLERHVVSFDSSRPTSGKMNCDVCGLSCISFNVLMVHKRSHTGERPFQCNQCGASFTQKGNLLRHIKLHTGEKPFKCHLCNYACQRRDALTGHLRTHSVEKPYKCEFCGRSYKQRSSLEEHKERCRTFLQSTDPGDTASAEARHIKAEMGSERALVLDRLASNVAKRKSSMPQKFIGEKRHCFDVNYNSSYMYEKESELIQTRMMDQAINNAISYLGAEALRPLVQTPPAPTSEMVPVISSMYPIALTRAEMSNGAPQELEKKSIHLPEKSVPSERGLSPNNSGHDSTDTDSNHEERQNHIYQQNHMVLSRARNGMPLLKEVPRSYELLKPPPICPRDSVKVINKEGEVMDVYRCDHCRVLFLDYVMFTIHMGCHGFRDPFECNMCGYRSHDRYEFSSHIARGEHRALLK

Variants of: B1
Details: with sh2d3_human SH2D3C

effect of a mutation on the interaction | Variant
with no effect | S265F
with no effect | A140D

Variants of: B2
Details: with rab2a_human RAB2A

effect of a mutation on the interaction | Variant
with no effect | S40L

Variants of: B3
Details: with fsd2_human FSD2, A1L4K1

effect of a mutation on the interaction | Variant
disrupting interaction strength | E141Q

Variants of: B4
Details: with cklf5_human CMTM5, Q96DZ9

effect of a mutation on the interaction | Variant
with no effect | A76V
with no effect | R143H

Variants of: B5
Details: with goga2_human GOLGA2, Q08379

effect of a mutation on the interaction | Variant
with no effect | P77S
with no effect | S166G

Variants of: B6
Details: with traf1_human TRAF1, Q13077
Chain of traf1_human TRAF1, Q13077 (Q13077 whole entry): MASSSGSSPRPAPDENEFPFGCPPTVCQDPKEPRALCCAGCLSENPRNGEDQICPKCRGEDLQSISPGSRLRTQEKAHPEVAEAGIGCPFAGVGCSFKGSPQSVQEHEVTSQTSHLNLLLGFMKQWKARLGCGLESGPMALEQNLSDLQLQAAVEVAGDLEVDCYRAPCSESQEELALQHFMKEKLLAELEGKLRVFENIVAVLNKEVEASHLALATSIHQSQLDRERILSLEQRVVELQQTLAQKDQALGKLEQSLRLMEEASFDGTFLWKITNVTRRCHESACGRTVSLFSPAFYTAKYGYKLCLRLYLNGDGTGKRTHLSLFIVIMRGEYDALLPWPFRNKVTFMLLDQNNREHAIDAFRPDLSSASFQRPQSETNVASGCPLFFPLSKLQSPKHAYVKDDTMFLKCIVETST

effect of a mutation on the interaction | Variant
with no effect | R229H

Variants of: B7
Details: with aakb2_human PRKAB2, O43741
Chain of aakb2_human PRKAB2, O43741 (O43741 whole entry): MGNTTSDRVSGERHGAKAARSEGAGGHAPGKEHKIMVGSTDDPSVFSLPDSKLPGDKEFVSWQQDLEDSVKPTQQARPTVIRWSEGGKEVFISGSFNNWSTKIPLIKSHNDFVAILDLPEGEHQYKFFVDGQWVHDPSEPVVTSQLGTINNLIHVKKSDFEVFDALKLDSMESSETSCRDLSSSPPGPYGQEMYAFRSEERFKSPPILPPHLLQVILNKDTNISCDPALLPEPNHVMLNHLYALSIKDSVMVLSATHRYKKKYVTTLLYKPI

effect of a mutation on the interaction | Variant
with no effect | I338M

Variants of: B7
Details: with pfd5_human PFDN5, Q99471
Chain of pfd5_human PFDN5, Q99471 (Q99471 whole entry): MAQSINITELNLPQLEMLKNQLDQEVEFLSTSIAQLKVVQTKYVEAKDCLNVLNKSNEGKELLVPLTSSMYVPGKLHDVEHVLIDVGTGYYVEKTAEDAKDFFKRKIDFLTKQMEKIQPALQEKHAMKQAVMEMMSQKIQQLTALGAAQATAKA

effect of a mutation on the interaction | Variant
with no effect | I338M

Variants of: B7
Details: with p85b_human PIK3R2, O00459
Chain of p85b_human PIK3R2, O00459 (O00459 whole entry): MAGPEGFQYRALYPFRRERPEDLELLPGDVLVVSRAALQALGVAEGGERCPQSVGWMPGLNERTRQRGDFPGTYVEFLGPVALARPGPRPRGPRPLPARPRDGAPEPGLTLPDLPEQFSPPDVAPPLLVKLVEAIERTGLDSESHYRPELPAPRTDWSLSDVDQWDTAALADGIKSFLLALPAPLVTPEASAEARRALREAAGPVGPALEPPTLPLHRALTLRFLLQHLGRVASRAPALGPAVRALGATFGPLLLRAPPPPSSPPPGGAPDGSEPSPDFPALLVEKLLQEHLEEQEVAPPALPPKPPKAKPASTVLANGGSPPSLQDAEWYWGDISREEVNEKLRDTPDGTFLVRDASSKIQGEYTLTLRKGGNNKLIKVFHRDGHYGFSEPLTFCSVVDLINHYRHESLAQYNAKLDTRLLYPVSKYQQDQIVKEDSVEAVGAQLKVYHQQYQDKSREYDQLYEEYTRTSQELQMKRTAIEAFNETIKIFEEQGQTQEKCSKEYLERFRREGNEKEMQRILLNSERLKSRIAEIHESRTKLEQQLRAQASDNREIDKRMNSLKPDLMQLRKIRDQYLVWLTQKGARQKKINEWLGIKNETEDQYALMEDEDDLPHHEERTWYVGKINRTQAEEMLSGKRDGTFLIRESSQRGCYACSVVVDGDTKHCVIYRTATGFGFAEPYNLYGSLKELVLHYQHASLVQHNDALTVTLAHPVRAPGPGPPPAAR

effect of a mutation on the interaction | Variant
with no effect | I338M

Variants of: B7
Details: with aakb2_human PRKAB2, O43741
Remark: another data set of the same source

effect of a mutation on the interaction | Variant
with no effect | N119D
with no effect | A24V

Variants of: B7
Details: with exoc8_human EXOC8, Q8IYI6
Chain of exoc8_human EXOC8, Q8IYI6 (Q8IYI6 whole entry): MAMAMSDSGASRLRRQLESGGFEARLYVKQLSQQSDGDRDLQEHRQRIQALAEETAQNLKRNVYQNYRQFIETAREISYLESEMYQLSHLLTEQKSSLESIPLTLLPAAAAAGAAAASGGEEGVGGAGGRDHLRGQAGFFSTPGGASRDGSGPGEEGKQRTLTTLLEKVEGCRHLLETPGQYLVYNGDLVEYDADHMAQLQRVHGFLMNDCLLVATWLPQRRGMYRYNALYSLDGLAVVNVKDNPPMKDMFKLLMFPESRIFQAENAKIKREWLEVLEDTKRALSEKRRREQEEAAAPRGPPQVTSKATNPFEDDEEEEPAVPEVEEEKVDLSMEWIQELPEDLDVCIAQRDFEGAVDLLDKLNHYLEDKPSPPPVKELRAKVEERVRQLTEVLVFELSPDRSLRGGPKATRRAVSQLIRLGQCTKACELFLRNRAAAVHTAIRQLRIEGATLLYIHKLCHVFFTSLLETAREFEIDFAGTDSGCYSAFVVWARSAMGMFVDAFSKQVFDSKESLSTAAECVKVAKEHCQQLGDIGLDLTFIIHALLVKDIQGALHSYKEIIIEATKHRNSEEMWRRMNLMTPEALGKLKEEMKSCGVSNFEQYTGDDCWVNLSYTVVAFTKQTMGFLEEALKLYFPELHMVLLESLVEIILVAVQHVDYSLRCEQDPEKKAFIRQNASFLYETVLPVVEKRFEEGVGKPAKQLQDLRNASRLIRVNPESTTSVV

effect of a mutation on the interaction | Variant
with no effect | N119D
with no effect | A24V

Variants of: B7
Details: with tb22b_human TBC1D22B

effect of a mutation on the interaction | Variant
with no effect | N119D
with no effect | A24V

Variants of: B7
Details: with p85b_human PIK3R2, O00459
Remark: another data set of the same source

effect of a mutation on the interaction | Variant
disrupting interaction strength | N119D
with no effect | A24V

Variants of: B7
Details: with rpac1_human POLR1C

effect of a mutation on the interaction | Variant
with no effect | N119D
with no effect | A24V

Variants of: B7
Details: with pfd5_human PFDN5, Q99471
Remark: another data set of the same source

effect of a mutation on the interaction | Variant
with no effect | N119D
with no effect | A24V

Variants of: B7
Details: with nek6_human NEK6, Q9HC98
Chain of nek6_human NEK6, Q9HC98 (Q9HC98 whole entry): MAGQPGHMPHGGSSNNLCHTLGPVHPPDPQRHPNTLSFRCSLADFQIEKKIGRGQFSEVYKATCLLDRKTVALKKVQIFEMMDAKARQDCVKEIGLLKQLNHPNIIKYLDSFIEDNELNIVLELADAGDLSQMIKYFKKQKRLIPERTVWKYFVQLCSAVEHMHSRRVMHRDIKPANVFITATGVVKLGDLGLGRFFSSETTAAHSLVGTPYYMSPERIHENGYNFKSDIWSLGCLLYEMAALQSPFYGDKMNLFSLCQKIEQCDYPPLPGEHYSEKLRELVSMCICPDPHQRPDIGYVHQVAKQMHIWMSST

effect of a mutation on the interaction | Variant
with no effect | N119D
with no effect | A24V

Variants of: B7
Details: with exos5_human EXOSC5, Q9NQT4
Chain of exos5_human EXOSC5, Q9NQT4 (Q9NQT4 whole entry): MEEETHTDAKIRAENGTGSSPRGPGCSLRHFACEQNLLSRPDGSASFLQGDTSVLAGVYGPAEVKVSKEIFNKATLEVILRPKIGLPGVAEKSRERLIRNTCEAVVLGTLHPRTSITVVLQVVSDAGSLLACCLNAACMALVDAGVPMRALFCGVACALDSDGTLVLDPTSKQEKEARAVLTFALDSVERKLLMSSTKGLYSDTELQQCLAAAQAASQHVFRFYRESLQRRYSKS

effect of a mutation on the interaction | Variant
with no effect | N119D
with no effect | A24V

Variants of: B7
Details: with tstd2_human TSTD2, Q5T7W7
Chain of tstd2_human TSTD2, Q5T7W7 (Q5T7W7 whole entry): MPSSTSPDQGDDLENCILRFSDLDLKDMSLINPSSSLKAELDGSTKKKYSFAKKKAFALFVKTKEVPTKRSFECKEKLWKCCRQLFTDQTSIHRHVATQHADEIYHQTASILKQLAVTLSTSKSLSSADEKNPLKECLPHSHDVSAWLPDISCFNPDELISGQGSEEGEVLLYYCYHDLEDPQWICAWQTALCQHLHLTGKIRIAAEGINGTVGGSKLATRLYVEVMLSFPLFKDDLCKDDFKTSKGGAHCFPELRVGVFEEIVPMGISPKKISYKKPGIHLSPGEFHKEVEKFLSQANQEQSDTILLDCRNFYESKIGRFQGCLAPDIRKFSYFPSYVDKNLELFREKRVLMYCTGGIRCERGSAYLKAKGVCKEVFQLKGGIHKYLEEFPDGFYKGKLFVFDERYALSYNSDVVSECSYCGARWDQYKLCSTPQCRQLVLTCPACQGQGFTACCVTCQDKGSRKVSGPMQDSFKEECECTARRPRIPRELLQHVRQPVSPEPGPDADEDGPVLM

effect of a mutation on the interaction | Variant
with no effect | N119D
with no effect | A24V
